{"source": "patent US20140087995A1", "about": "(published 2014)", "note": "Numbered stars: 1 amine (or outer) side, 2 acyl side, 3 side chain; on linkers, the order of the positions; unused ones are H or OH. Bridge positions count the residues as written; N and C are the ends. Side chains are listed from the residue outwards. Ends that are not written are not given here. * marks the point of attachment. C20 diacid = O=C(O)CCCCCCCCCCCCCCCCCCC(=O)*; γGlu = O=C(O)[C@H](CCC(=O)[*:2])N[*:1]; AEEA = NCCOCCOCC(=O)O", "data": [{"target": "T1, human amylin receptor (amylin 3(a) receptor: human calcitonin receptor with RAMP-3) (human, UniProt P30988 25-474; O60896 24-148)", "T1 construct": "whole, on cells; also called hAmylin-R; hAmylinR", "T1 sequence (looked up) 1": "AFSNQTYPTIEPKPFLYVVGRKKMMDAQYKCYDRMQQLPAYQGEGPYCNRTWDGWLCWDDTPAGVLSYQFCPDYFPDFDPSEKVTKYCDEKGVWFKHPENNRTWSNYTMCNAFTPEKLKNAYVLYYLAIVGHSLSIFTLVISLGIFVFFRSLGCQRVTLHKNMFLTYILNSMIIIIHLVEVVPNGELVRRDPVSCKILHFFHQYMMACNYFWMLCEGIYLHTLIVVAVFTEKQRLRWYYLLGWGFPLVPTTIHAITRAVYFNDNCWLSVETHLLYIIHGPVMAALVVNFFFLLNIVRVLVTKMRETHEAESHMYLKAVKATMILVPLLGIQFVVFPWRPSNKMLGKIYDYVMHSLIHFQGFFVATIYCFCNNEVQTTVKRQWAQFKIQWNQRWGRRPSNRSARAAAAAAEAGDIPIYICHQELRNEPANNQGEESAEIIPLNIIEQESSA", "T1 sequence (looked up) 2": "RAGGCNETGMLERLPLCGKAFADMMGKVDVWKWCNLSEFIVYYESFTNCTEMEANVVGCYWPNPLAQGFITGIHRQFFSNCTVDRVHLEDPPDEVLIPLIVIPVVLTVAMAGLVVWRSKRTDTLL", "test": "SPA displacement of 125I-rat amylin, hAmylin 3(a) receptor membranes", "summary_of_the_method": "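Cell membranes were prepared by homogenisation in Na-HEPES/EDTA buffer, pH 7.4, and stored at −80° C. They were then coupled to SPA beads at 35 ng/μL final and exposed to compounds in assay buffer containing CaCl2, MgCl₂, OA and Tween20. After 120 min at 25° C, plates were counted and IC₅₀ derived.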", "units": {"IC50": "nM"}, "values": [{"binder": "K([AEEA-γGlu-C20 diacid])CNTATCATQRLANFLRHSSPNFGAIPSSTNVGSETY-NH2 (disulfide 2-7; N-terminus assumed; SMILES CC[C@H](C)[C@H](NC(=O)[C@H](C)NC(=O)CNC(=O)[C@H](Cc1ccccc1)NC(=O)[C@H](CC(N)=O)NC(=O)[C@@H]1CCCN1C(=O)[C@H](CO)NC(=O)[C@H](CO)NC(=O)[C@H](Cc1c[nH]cn1)NC(=O)[C@H](CCCNC(=N)N)NC(=O)[C@H](CC(C)C)NC(=O)[C@H](Cc1ccccc1)NC(=O)[C@H](CC(N)=O)NC(=O)[C@H](C)NC(=O)[C@H](CC(C)C)NC(=O)[C@H](CCCNC(=N)N)NC(=O)[C@H](CCC(N)=O)NC(=O)[C@@H](NC(=O)[C@H](C)NC(=O)[C@@H]1CSSC[C@H](NC(=O)[C@@H](N)CCCCNC(=O)COCCOCCNC(=O)CC[C@H](NC(=O)CCCCCCCCCCCCCCCCCCC(=O)O)C(=O)O)C(=O)N[C@@H](CC(N)=O)C(=O)N[C@@H]([C@@H](C)O)C(=O)N[C@@H](C)C(=O)N[C@@H]([C@@H](C)O)C(=O)N1)[C@@H](C)O)C(=O)N1CCC[C@H]1C(=O)N[C@@H](CO)C(=O)N[C@@H](CO)C(=O)N[C@H](C(=O)N[C@@H](CC(N)=O)C(=O)N[C@H](C(=O)NCC(=O)N[C@@H](CO)C(=O)N[C@@H](CCC(=O)O)C(=O)N[C@H](C(=O)N[C@@H](Cc1ccc(O)cc1)C(N)=O)[C@@H](C)O)C(C)C)[C@@H](C)O, also called 26; compound 26)", "IC50": 0.532}, {"binder": "K([AEEA-γGlu-C20 diacid])CNTATCATQRLANFLRHSSPNFGAIPPSTNVGPNTY-NH2 (disulfide 2-7; N-terminus assumed; SMILES CC[C@H](C)[C@H](NC(=O)[C@H](C)NC(=O)CNC(=O)[C@H](Cc1ccccc1)NC(=O)[C@H](CC(N)=O)NC(=O)[C@@H]1CCCN1C(=O)[C@H](CO)NC(=O)[C@H](CO)NC(=O)[C@H](Cc1c[nH]cn1)NC(=O)[C@H](CCCNC(=N)N)NC(=O)[C@H](CC(C)C)NC(=O)[C@H](Cc1ccccc1)NC(=O)[C@H](CC(N)=O)NC(=O)[C@H](C)NC(=O)[C@H](CC(C)C)NC(=O)[C@H](CCCNC(=N)N)NC(=O)[C@H](CCC(N)=O)NC(=O)[C@@H](NC(=O)[C@H](C)NC(=O)[C@@H]1CSSC[C@H](NC(=O)[C@@H](N)CCCCNC(=O)COCCOCCNC(=O)CC[C@H](NC(=O)CCCCCCCCCCCCCCCCCCC(=O)O)C(=O)O)C(=O)N[C@@H](CC(N)=O)C(=O)N[C@@H]([C@@H](C)O)C(=O)N[C@@H](C)C(=O)N[C@@H]([C@@H](C)O)C(=O)N1)[C@@H](C)O)C(=O)N1CCC[C@H]1C(=O)N1CCC[C@H]1C(=O)N[C@@H](CO)C(=O)N[C@H](C(=O)N[C@@H](CC(N)=O)C(=O)N[C@H](C(=O)NCC(=O)N1CCC[C@H]1C(=O)N[C@@H](CC(N)=O)C(=O)N[C@H](C(=O)N[C@@H](Cc1ccc(O)cc1)C(N)=O)[C@@H](C)O)C(C)C)[C@@H](C)O, also called 55; compound 55)", "IC50": 0.042}, {"binder": "K([AEEA-γGlu-C20 diacid])CNTATCATQRLANFLRHSSPNFGAIPSSTNVGHNTY-NH2 (disulfide 2-7; N-terminus assumed; SMILES CC[C@H](C)[C@H](NC(=O)[C@H](C)NC(=O)CNC(=O)[C@H](Cc1ccccc1)NC(=O)[C@H](CC(N)=O)NC(=O)[C@@H]1CCCN1C(=O)[C@H](CO)NC(=O)[C@H](CO)NC(=O)[C@H](Cc1c[nH]cn1)NC(=O)[C@H](CCCNC(=N)N)NC(=O)[C@H](CC(C)C)NC(=O)[C@H](Cc1ccccc1)NC(=O)[C@H](CC(N)=O)NC(=O)[C@H](C)NC(=O)[C@H](CC(C)C)NC(=O)[C@H](CCCNC(=N)N)NC(=O)[C@H](CCC(N)=O)NC(=O)[C@@H](NC(=O)[C@H](C)NC(=O)[C@@H]1CSSC[C@H](NC(=O)[C@@H](N)CCCCNC(=O)COCCOCCNC(=O)CC[C@H](NC(=O)CCCCCCCCCCCCCCCCCCC(=O)O)C(=O)O)C(=O)N[C@@H](CC(N)=O)C(=O)N[C@@H]([C@@H](C)O)C(=O)N[C@@H](C)C(=O)N[C@@H]([C@@H](C)O)C(=O)N1)[C@@H](C)O)C(=O)N1CCC[C@H]1C(=O)N[C@@H](CO)C(=O)N[C@@H](CO)C(=O)N[C@H](C(=O)N[C@@H](CC(N)=O)C(=O)N[C@H](C(=O)NCC(=O)N[C@@H](Cc1c[nH]cn1)C(=O)N[C@@H](CC(N)=O)C(=O)N[C@H](C(=O)N[C@@H](Cc1ccc(O)cc1)C(N)=O)[C@@H](C)O)C(C)C)[C@@H](C)O, also called 76; compound 76)", "IC50": 0.215}, {"binder": "K([AEEA-γGlu-C20 diacid])CNTATCATQRLANFLRHSSPNFGAIPPSTPVGSNTY-NH2 (disulfide 2-7, also called 53; compound 53)", "IC50": 0.052}, {"binder": "K([AEEA-γGlu-C20 diacid])CNTATCATQRLANFLRHSSPNFGAIPSPTNVGPNTY-NH2 (disulfide 2-7; N-terminus assumed; SMILES CC[C@H](C)[C@H](NC(=O)[C@H](C)NC(=O)CNC(=O)[C@H](Cc1ccccc1)NC(=O)[C@H](CC(N)=O)NC(=O)[C@@H]1CCCN1C(=O)[C@H](CO)NC(=O)[C@H](CO)NC(=O)[C@H](Cc1c[nH]cn1)NC(=O)[C@H](CCCNC(=N)N)NC(=O)[C@H](CC(C)C)NC(=O)[C@H](Cc1ccccc1)NC(=O)[C@H](CC(N)=O)NC(=O)[C@H](C)NC(=O)[C@H](CC(C)C)NC(=O)[C@H](CCCNC(=N)N)NC(=O)[C@H](CCC(N)=O)NC(=O)[C@@H](NC(=O)[C@H](C)NC(=O)[C@@H]1CSSC[C@H](NC(=O)[C@@H](N)CCCCNC(=O)COCCOCCNC(=O)CC[C@H](NC(=O)CCCCCCCCCCCCCCCCCCC(=O)O)C(=O)O)C(=O)N[C@@H](CC(N)=O)C(=O)N[C@@H]([C@@H](C)O)C(=O)N[C@@H](C)C(=O)N[C@@H]([C@@H](C)O)C(=O)N1)[C@@H](C)O)C(=O)N1CCC[C@H]1C(=O)N[C@@H](CO)C(=O)N1CCC[C@H]1C(=O)N[C@H](C(=O)N[C@@H](CC(N)=O)C(=O)N[C@H](C(=O)NCC(=O)N1CCC[C@H]1C(=O)N[C@@H](CC(N)=O)C(=O)N[C@H](C(=O)N[C@@H](Cc1ccc(O)cc1)C(N)=O)[C@@H](C)O)C(C)C)[C@@H](C)O, also called 56; compound 56)", "IC50": 0.049}, {"binder": "K([AEEA-γGlu-C20 diacid])CNTATCATQRLANFLRHSSPNFGAIPSPTPVGSNTY-NH2 (disulfide 2-7; N-terminus assumed; SMILES CC[C@H](C)[C@H](NC(=O)[C@H](C)NC(=O)CNC(=O)[C@H](Cc1ccccc1)NC(=O)[C@H](CC(N)=O)NC(=O)[C@@H]1CCCN1C(=O)[C@H](CO)NC(=O)[C@H](CO)NC(=O)[C@H](Cc1c[nH]cn1)NC(=O)[C@H](CCCNC(=N)N)NC(=O)[C@H](CC(C)C)NC(=O)[C@H](Cc1ccccc1)NC(=O)[C@H](CC(N)=O)NC(=O)[C@H](C)NC(=O)[C@H](CC(C)C)NC(=O)[C@H](CCCNC(=N)N)NC(=O)[C@H](CCC(N)=O)NC(=O)[C@@H](NC(=O)[C@H](C)NC(=O)[C@@H]1CSSC[C@H](NC(=O)[C@@H](N)CCCCNC(=O)COCCOCCNC(=O)CC[C@H](NC(=O)CCCCCCCCCCCCCCCCCCC(=O)O)C(=O)O)C(=O)N[C@@H](CC(N)=O)C(=O)N[C@@H]([C@@H](C)O)C(=O)N[C@@H](C)C(=O)N[C@@H]([C@@H](C)O)C(=O)N1)[C@@H](C)O)C(=O)N1CCC[C@H]1C(=O)N[C@@H](CO)C(=O)N1CCC[C@H]1C(=O)N[C@H](C(=O)N1CCC[C@H]1C(=O)N[C@H](C(=O)NCC(=O)N[C@@H](CO)C(=O)N[C@@H](CC(N)=O)C(=O)N[C@H](C(=O)N[C@@H](Cc1ccc(O)cc1)C(N)=O)[C@@H](C)O)C(C)C)[C@@H](C)O, also called 54; compound 54)", "IC50": 0.03}, {"binder": "K([AEEA-γGlu-C20 diacid])CNTATCATQRLANFLRHSSPNFGAIPSSTPVGSHTY-NH2 (disulfide 2-7; N-terminus assumed; SMILES CC[C@H](C)[C@H](NC(=O)[C@H](C)NC(=O)CNC(=O)[C@H](Cc1ccccc1)NC(=O)[C@H](CC(N)=O)NC(=O)[C@@H]1CCCN1C(=O)[C@H](CO)NC(=O)[C@H](CO)NC(=O)[C@H](Cc1c[nH]cn1)NC(=O)[C@H](CCCNC(=N)N)NC(=O)[C@H](CC(C)C)NC(=O)[C@H](Cc1ccccc1)NC(=O)[C@H](CC(N)=O)NC(=O)[C@H](C)NC(=O)[C@H](CC(C)C)NC(=O)[C@H](CCCNC(=N)N)NC(=O)[C@H](CCC(N)=O)NC(=O)[C@@H](NC(=O)[C@H](C)NC(=O)[C@@H]1CSSC[C@H](NC(=O)[C@@H](N)CCCCNC(=O)COCCOCCNC(=O)CC[C@H](NC(=O)CCCCCCCCCCCCCCCCCCC(=O)O)C(=O)O)C(=O)N[C@@H](CC(N)=O)C(=O)N[C@@H]([C@@H](C)O)C(=O)N[C@@H](C)C(=O)N[C@@H]([C@@H](C)O)C(=O)N1)[C@@H](C)O)C(=O)N1CCC[C@H]1C(=O)N[C@@H](CO)C(=O)N[C@@H](CO)C(=O)N[C@H](C(=O)N1CCC[C@H]1C(=O)N[C@H](C(=O)NCC(=O)N[C@@H](CO)C(=O)N[C@@H](Cc1c[nH]cn1)C(=O)N[C@H](C(=O)N[C@@H](Cc1ccc(O)cc1)C(N)=O)[C@@H](C)O)C(C)C)[C@@H](C)O, also called 57; compound 57)", "IC50": 0.115}]}]}
